# Assay results published in the RNAGym collection of RNA variant scans (doi:10.7554/elife.80360).
# B1: CPEB3 Ribozyme (parent)
# chain: GGGGGCCACAGCAGAAGCGUUCACGUCGCGGCCCCUGUCAGAUUCUGGUGAAUCUGCGAAUUCUGCUGU
# Variants of: B1
# Assay: self-cleavage, relative activity (ratio to wild type); higher = more cleavage; co-transcriptional
row,Variant,self-cleavage
1,G4A C24A,0.295
2,G3U U43C,0.0372
3,G3U U43A,0.0999
4,G3C G50A,0.0909
5,G3U U21C,0.0376
6,G3U U21G,0.0385
7,G3U U21A,0.157
8,G3U,0.195
9,G4C A13U,0.302
10,G4C A13G,0.472
11,G3C G58U,0.216
12,G3C G58A,0.0258
13,G4A G11U,0.629
14,G4A G11A,0.672
15,G4A G11C,0.631
16,G4C A10U,0.802
17,G4A C35G,0.162
18,G4A C35A,0.175
19,G4A A15G,0.93
20,G4A A15U,0.455
21,G4A A15C,0.329
22,G4A U46C,0.828
23,G4A U36G,0.424
24,G4A U36C,0.792

row,Variant,self-cleavage
1,G3U C22A,0.051
2,G3U C22G,0.0464
3,G3U C22U,0.047
4,G4A G14C,0.305
5,G4A G14U,0.519
6,G3C U69G,0.222
7,G3C U69C,0.495
8,G3U A13U,0.105
9,G3U A13G,0.181
10,G3U A13C,0.0166
11,G4A C57G,0.217
12,G4A C57A,0.245
13,G4A C57U,0.223
14,G3U G28U,0.0309
15,G3U G28C,0.0382
16,G4A U67G,0.918
17,G4A U67C,0.986
18,G4A U67A,0.92
19,G4A A40C,0.216
20,G4A G68U,0.978
21,G3U C35A,0.0237
22,G3U C35G,0.0418
23,G4A A8C,0.897
24,G4A A8G,0.698

row,Variant,self-cleavage
1,G4A A8U,0.86
2,G3C U44G,0.054
3,G3C U44A,0.0725
4,G3U U62G,0.108
5,G3U U62A,0.0711
6,G3U C54G,0.0746
7,G3U C54A,0.0729
8,G3U C54U,0.148
9,G3U G65C,0.0613
10,G3U G65A,0.171
11,G3U U20A,0.0443
12,G4A A60G,0.475
13,G4A A60U,0.264
14,G4A A60C,0.217
15,G3U U49C,0.176
16,G3U U49A,0.201
17,G3C U61G,0.0927
18,G3U A15U,0.0782
19,G3U A15C,0.0817
20,G3U A15G,0.141
21,G3U G19U,0.0853
22,G3U G19A,0.0413
23,G4C A52C,0.38
24,G4C A52G,0.53

row,Variant,self-cleavage
1,G4A U55G,0.52
2,G4A C34A,0.31
3,G4A C34U,0.627
4,G3U U38C,0.0341
5,G3U U38G,0.0509
6,G3U G50C,0.145
7,G3C U43G,0.104
8,G3C U43A,0.0425
9,G3C U49C,0.149
10,G3C U49G,0.039
11,G3U U69A,0.301
12,G3U U69G,0.283
13,G3U U69C,0.46
14,G3U U61A,0.0525
15,G3U U61C,0.0446
16,G4A A16G,0.737
17,G4A A16U,0.459
18,G3U U53A,0.112
19,G3U U53C,0.0626
20,G3U C34U,0.381
21,G3U C34A,0.687
22,G3C U64A,0.0618
23,G3C U64C,0.0655
24,G4A C18U,0.481

row,Variant,self-cleavage
1,G4A C18G,0.158
2,G4A C18A,0.147
3,G4A U38G,0.107
4,G4A U38A,0.761
5,G4A A42C,0.473
6,G4A A42G,0.806
7,G3U A51U,0.17
8,G3U A51C,0.105
9,G3U A40G,0.0981
10,G3U A40U,0.0917
11,G3U C9G,0.446
12,G3U C24U,0.0674
13,G3U C24A,0.0286
14,G3U C24G,0.0481
15,G4C C9U,0.937
16,G4C C9G,0.899
17,G4C C9A,0.905
18,G4A G19U,0.178
19,G4A G19C,0.11
20,G4C A60U,0.174
21,G3C G68A,0.4
22,G3C G68C,0.432
23,G3C U67G,0.219
24,G3C U67A,0.239

row,Variant,self-cleavage
1,G3C U21A,0.072
2,G3C U21G,0
3,G3C U21C,0.058
4,G3U C32U,0.0936
5,G3U A16C,0.0591
6,G3U A16G,0.0682
7,G3U A16U,0.0502
8,G4A U49C,0.916
9,G4A U49G,0.728
10,G4A A10G,0.868
11,G4A A10C,0.968
12,G3U G5C,0.0208
13,G3U G5A,0.0231
14,G4A G25U,0.0834
15,G4A G25A,0.117
16,G4C A23C,0.432
17,G4C A23G,0.349
18,G4A C54G,0.388
19,G4A G31U,0.159
20,G4A G31C,0.148
21,G4A C9U,0.953
22,G4A C9G,1.05
23,G4A C9A,1.03
24,G4A G58A,0.683

row,Variant,self-cleavage
1,G4A G58U,0.9
2,G4C A8C,0.578
3,G4C A8U,0.617
4,G4C A8G,0.545
5,G3U G17C,0.0675
6,G3U G17U,0.0304
7,G3C U36G,0.329
8,G3C U36C,0.0612
9,G3C U36A,0.0318
10,G3U G14U,0.0458
11,G3U G14C,0.0411
12,G4C A15G,0.496
13,G4C A15C,0.145
14,G3U G25C,0.0349
15,G4A G47A,0.895
16,G4A G47C,0.901
17,G3U G11C,0.0634
18,G3U C6G,0.0291
19,G3U C6U,0.0423
20,G4A U20A,0.23
21,G4A U20G,0.0767
22,G4A A52U,0.882
23,G3U A23G,0.0915
